Data taken from patent US7098025B1, “Human peroxisome proliferator activated receptor gamma (pparγ) gene regulatory sequences and uses therefor” (Ligand Pharmaceuticals Incorporated, priority 1997, dated 2006).

B1: MCSF: macrophage colony stimulating factor (protein, UniProt P09603 33-554, looked up)
Macrophage colony-stimulating …: EEVSEYCSHMIGSGHLQSLQRLIDSQMETSCQITFEFVDQEQLKDPVCYLKKAFLLVQDIMEDTMRFRDNTPNAIAIVQLQELSLRLKSCFTKDYEEHDKACVRTFYETPLQLLEKVKNVFNETKNLLDKDWNIFSKNCNNSFAECSSQDVVTKPDCNCLYPKAIPSSDPASVSPHQPLAPSMAPVAGLTWEDSEGTEGSSLLPGEQPLHTVDPGSAKQRPPRSTCQSFEPPETPVVKDSTIGGSPQPRPSVGAFNPGMEDILDSAMGTNWVPEEASGEASEIPVPQGTELSPSRPGGGSMQTEPARPSNFLSASSPLPASAKGQQPADVTGTALPRVGPVRPTGQDWNHTPQKTDHPSALLRDPPEPGSPRISSLRPQGLSNPSTLSAQPQLSRSHSSGSVLPLGELEGRRSTRDRRSPAEPEGGPASEGAARPLPRFNSVPLTDTGHERQSEGSFSPQLQESVFHLLVPSVILVLLAVGGLLFYRWRRRSHQEPQRADSPLEQPEGSPLTQDDRQVELPV
B2: apoA-II J site PPRE (dsDNA)
DNA 1: GATCCTTCAACCTTTACCCTGGTAGA
DNA 2: TCTACCAGGGTAAAGGTTGAAGGATC

Assays:
PPARγ expression = PPARγ expression in primary macrophages and monocytic cell lines; format: cell-based
Source text: PPARγ is expressed in a subset of macrophages and negatively regulates the expression of several pro-inflammatory genes in response to its ligands. We recently discovered the presence of PPARγ in human macrophages foam cells of human atherosclerotic lesions. In these cells, PPARγ is present in a pattern correlated with that of oxidation-specific epitopes. Oxidized low-density lipoprotein (LDL) and macrophage colony stimulating factor (MCSF) are known to be present in atherosclerotic lesions. […] Furthermore, phorbol esters induced PPARγ expression.

RXRalpha = biological target: T1, RXRalpha (Mus musculus, UniProt P28700 P28700:1-467); test: EMSA; homodimer, no PPAR; conditions: tags: rabbit reticulocyte lysate (Promega); label: 32P (T4-PNK)
T1 sequence: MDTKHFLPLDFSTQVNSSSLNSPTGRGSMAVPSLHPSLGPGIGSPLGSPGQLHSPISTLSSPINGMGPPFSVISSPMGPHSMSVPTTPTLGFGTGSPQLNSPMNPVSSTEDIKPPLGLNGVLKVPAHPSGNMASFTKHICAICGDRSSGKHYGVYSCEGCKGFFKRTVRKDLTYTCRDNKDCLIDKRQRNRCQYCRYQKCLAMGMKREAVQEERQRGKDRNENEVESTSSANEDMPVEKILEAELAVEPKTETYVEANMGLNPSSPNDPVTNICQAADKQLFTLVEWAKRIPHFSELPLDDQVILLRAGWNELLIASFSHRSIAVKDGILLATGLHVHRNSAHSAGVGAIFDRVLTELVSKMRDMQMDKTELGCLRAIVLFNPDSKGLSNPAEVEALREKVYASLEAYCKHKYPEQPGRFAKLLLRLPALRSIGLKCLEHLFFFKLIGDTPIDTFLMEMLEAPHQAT
Procedure: (§1) To analyze whether PPARγ could bind to a PPRE, classically composed of direct repeats spaced by one intervening nucleotide (DR-1), EMSA was performed using in vitro transcribed/translated PPARγ2 protein. An oligonucleotide containing a high affinity PPRE, previously identified in the apoA-II promoter J site, was used in EMSA (29).
(§2) 7. Electrophoretic Mobility Shift Assays (EMSA) and Oligonucleotide Sequences haPPARγ (39), hPPARγ2, and mRXRα (40) proteins were synthesized in vitro in rabbit reticulocyte lysate (Promega). Molecular weights and quality of the in vitro translated proteins were verified by SDS-PAGE. PPAR (2 μl) and/or RXR (2 μl) were incubated for 15 min on ice in a total volume of 20 μl with 1-ng probe, 2.5 μg of poly(dI-dC) and 1 μg of herring sperm DNA in binding buffer (10 mM Tris-HCl pH 7.9, 40 mMKCl, 10% glycerol, 0.05% Nonidet P-40, and 1 mM dithiothreitol). For competition experiments, increasing amounts (from 10- to 200-fold molar excess) of cold oligonucleotide (AII-J-PPRE, 5'-[…]-3' (41) SEQ ID NO: 24; acyl-CoA oxidase (ACO)-PPRE, 5'-[…]-3' (42) SEQ ID NO: 25; or LPL-PPRE, 5'-[…]-3 (23) SEQ ID NO: 26; were included just before adding T4-PNK end-labeled AII-J-PPRE oligonucleotide. DNA-protein complexes were separated by electrophoresis on a 4% polyacrylamide gel in 0.25×TBE buffer at 4° C. (43).

PPARgamma2 = PPARgamma2 (Homo sapiens, UniProt P37231 P37231:1-505); test: EMSA; homodimer, no RXR; conditions: tags: rabbit reticulocyte lysate (Promega); label: 32P (T4-PNK)
Chain of PPARgamma2 (P37231 whole entry, one chain of several): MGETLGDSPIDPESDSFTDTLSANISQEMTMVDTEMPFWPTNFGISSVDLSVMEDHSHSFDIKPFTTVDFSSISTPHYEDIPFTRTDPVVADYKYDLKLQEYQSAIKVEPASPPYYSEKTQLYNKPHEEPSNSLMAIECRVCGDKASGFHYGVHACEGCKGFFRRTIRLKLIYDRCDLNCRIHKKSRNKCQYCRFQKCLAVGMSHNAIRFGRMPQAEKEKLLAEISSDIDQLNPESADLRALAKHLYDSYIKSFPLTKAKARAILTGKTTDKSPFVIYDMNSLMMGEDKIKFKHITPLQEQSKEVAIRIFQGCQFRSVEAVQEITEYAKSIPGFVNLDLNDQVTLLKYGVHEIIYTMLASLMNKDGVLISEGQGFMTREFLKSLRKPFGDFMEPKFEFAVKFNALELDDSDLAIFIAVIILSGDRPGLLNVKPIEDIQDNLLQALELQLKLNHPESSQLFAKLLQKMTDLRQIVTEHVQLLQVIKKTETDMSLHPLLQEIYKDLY
Procedure: as §1, §2

[1] = biological target: PPARgamma/RXRalpha heterodimer (hamster haPPARgamma) (hamster / Mus musculus, UniProt P57797;P28700 P57797:1-475,P28700:1-467); test: EMSA; pH 7.9, 40 mM KCl, on ice; conditions: tags: rabbit reticulocyte lysate (Promega); label: 32P (T4-PNK)
Procedure: as §1, §2

[2] = biological target: PPARgamma2/RXRalpha heterodimer (Homo sapiens / Mus musculus, UniProt P37231;P28700 P37231:1-505,P28700:1-467); test: EMSA; pH 7.9, 40 mM KCl, on ice; self-competition almost complete; conditions: tags: rabbit reticulocyte lysate (Promega); label: 32P (T4-PNK)
Chain of PPARgamma2/RXRalpha heterodimer (P37231 whole entry, one chain of several): as above
Procedure: as §1, §2

Molecule | PPARγ expression (PPARγ expression) | binding result (RXRalpha) | binding result (PPARgamma2) | binding result [1] | binding result [2]
B1 | stimulate PPARγ expression | – | – | – | –
B2 | – | no binding | no binding | binds | binds
